The target of this test is ILz(6):TRAIL (human) (UniProt P50591). As to the kind of experiment: SEC. Background: SEC sorts molecules by how far they enter the pores of the column.

Where “and” joins values, the source holds several entries; their conditions need not be identical. Identical values can stand only once.

With “ILz(6):TRAIL (from UniProt P50591 114-281) (ligand)”, the stoichiometry N – broadly, the number of molecules, sites or subunits per partner or assembly – is 3 and 6.

The values are drawn from article PMC5070708.
